Columns and labels:
steviol glycoside = steviol glycoside bioconversion with complemented sucrose synthases in chassis strain; format: cell-based, E. coli; conditions: chassis strain with UGT SEQ ID NOS: 15 and 25, stevia leaf extract, glucose fed, 37° C., 48 hr, FIG. 3
From the text: Strains were created that expressed candidate sucrose synthase enzymes, which may improve UDP-glucose availability when fed sucrose. Expression of a sucrose synthase enables splitting of sucrose into fructose and glucose. Glucose can be funneled towards UDP-glucose biosynthesis. […] Genes were complemented on plasmid. Fold improvement is with respect to total steviol glycoside conversion. Stevia leaf extract, sucrose, and glucose were fed to the bioconversion strains. Bioconversion took place at 37° C. for 48 hr. Data were quantified by reverse phase LC DAD to quantify conversion of steviol glycosides.

[1] = Kasai et al. 1989; cited from earlier work
Mog. IIE or Mog. IE = assay: branched glycosylation reactions by cells expressing UGT enzymes; format: cell-based, E. coli; conditions: Mog. IIE or Mog. IE fed; 37° C., 48 hr; LC-MS/MS
Method: Mog. IIE or Mog. IE was fed to cells expressing various UGT enzymes. Reactions were incubated at 37° C. for 48 hr. Products were quantified by LC-MS/MS with authentic standards of each compound. “Indirect” evidence means that consumption of substrate was observed.

Mog. II-E = assay: production of Mog.III or siamenoside from Mog. II-E; format: cell-based, E. coli; conditions: 37° C., 48 hr; FIG. 19
Method: II-E. In the experiment, engineered E. coli strains expressing UGT enzymes SEQ ID NO: 72, SEQ ID NO: 54 or SEQ ID NO: 13 were grown in fermentation media containing Mog. II-E at 37° C. for 48 hr. Products were quantified by LCMS/MS with authentic standards of each compound. […] IIE to Mog.III.

mogrol [2] = assay: primary glycosylation at C3 and C24 hydroxyls of mogrol by cells expressing UGT enzymes; format: cell-based, E. coli; conditions: mogrol fed; 37° C., 48 hrs; LCMS/MS
Method: Specifically, mogrol was fed to cells expressing various UGT enzymes. Reactions were incubated at 37° C. for 48 hrs. Products were quantified by LCMS/MS with authentic standards of each compound.

Mog. IA = assay: bioconversion of Mog. IA into Mog. IIE; format: cell-based, E. coli; conditions: 96-well plates, 37° C., 48 hours; FIG. 18A
Method: (§1) IE (FIG. 18B) into Mog. IIE. In the experiment, engineered E. coli chassis strains expressing UGT enzymes, SEQ ID NO: 84, SEQ ID NO: 71, or SEQ ID NO: 33 were incubated in fermentation media containing Mog. IA (FIG. 18A) or Mog. IE (FIG. 18B) in 96-well plates at 37° C. Product formation was examined after 48 hours. Products were measured on LC-MS/MS with authentic standards. The values of Mog. IIE levels in excess of the empty vector control were calculated. […] IE into Mog. IIE.

Mog. IE = assay: bioconversion of Mog. IE into Mog. IIE; format: cell-based, E. coli; conditions: 96-well plates, 37° C., 48 hours; FIG. 18B
Method: as §1

mogrol [3] = assay: bioconversion of mogrol into mogroside intermediates; format: cell-based, E. coli; conditions: 96-well plates, 48 hours, in excess of empty vector control; FIG. 17A
Method: The engineered bacterial strains described herein can be used for the glycosylation of a variety of substrates, including but not limited to terpenoid glycosides. In some aspects, the invention identifies UGT enzymes that are active on the mogrol or mogroside scaffolds. FIGS. 17A and B show the bioconversion of mogrol into mogroside intermediates. Engineered E. coli strains (chassis strain) expressing UGT enzymes were incubated in 96-well plates with mogrol. Product formation was examined after 48 hours. Reported values are those in excess of the empty vector control. Products were measured on LC-MS/MS with authentic standards. […] IE and/or Mog. IIE formed.

Molecule	C3 1-2 (Mog. IIE or Mog. IE)	C3 1-6 (Mog. IIE or Mog. IE)	C24 1-2 (Mog. IIE or Mog. IE)	C24 1-6 (Mog. IIE or Mog. IE)	bioconversion of Mog. IIE to Mog.III (Mog. II-E)	C3 O-Glucosylation (mogrol [2])	C24 O-Glucosylation (mogrol [2])	bioconversion of Mog. IE into Mog. IIE (Mog. IE)	also measured
SEQ ID NO: 8: sucrose synthase, Vigna radiate (VrSS1)									improvement of total steviol glycoside conversion by sucrose synthase (steviol glycoside): dramatic improvements in glycosylation
SEQ ID NO: 10: sucrose synthase, Glycine Max (GmSS)									improvement of total steviol glycoside conversion by sucrose synthase (steviol glycoside): dramatic improvements in glycosylation
C[C@H](CC[C@@H](O[C@@H]1O[C@H](CO[C@@H]2O[C@H](CO)[C@@H](O)[C@H](O)[C@H]2O)[C@@H](O)[C@H](O)[C@H]1O[C@@H]1O[C@H](CO)[C@@H](O)[C@H](O)[C@H]1O)C(C)(C)O)[C@H]1CC[C@@]2(C)[C@@H]3CC=C4[C@@H](CC[C@H](O[C@@H]5O[C@H](CO[C@@H]6O[C@H](CO)[C@@H](O)[C@H](O)[C@H]6O)[C@@H](O)[C@H](O)[C@H]5O)C4(C)C)[C@]3(C)[C@H](O)C[C@]12C [mogroside V]									sweetening capacity, times that of sucrose [1]: ~ 250 times
SEQ ID NO: 72: HvUGT B1 (Hordeum vulgare subsp. Vulgare) (protein, Hordeum vulgare) MAQAESERMRVVMFPWLAHGHINPYLELAKRLIASASGDHHLDVVVHLVSTPANLAPLAHHQTDRLRLVELHLPSLPDLPPALHTTKGLPARLMPVLKRACDLAAPRFGALLDELCPDILVYDFIQPWAPLEAEARGVPAFHFATCGAAATAFFIHCLKTDRPPSAFPFESISLGGVDEDAKYTALVTVREDSTALVAERDRLPLSLERSSGFVAVKSSADIERKYMEYLSQLLGKEIIPTGPLLVDSGGSEEQRDGGRIMRWLDGEEPGSVVFVSFGSEYFMSEHQMAQMARGLELSGVPFLWVVRFPNAEDDARGAARSMPPGFEPELGLVVEGWAPQRRILSHPSCGAFLTHCGWSSVLESMAAGVPMVALPLHIDQPLNANLAVELGAAAARVKQERFGEFTAEEVARAVRAAVKGKEGEAARRRARELQEVVARNNGNDGQIATLLQRMARLCGKDQAVPN	No	Yes	No	No	able to catalyze bioconversion of Mog. IIE to Mog.III				
SEQ ID NO: 84: UGT85C1 (Stevia rebaudiana) (protein, listed as Stevia rebaudiana) MDQMAKIDEKKPHVVFIPFPAQSHIKCMLKLARILHQKGLYITFINTDTNHERLVASGGTQWLENAPGFWFKTVPDGFGSAKDDGVKPTDALRELMDYLKTNFFDLFLDLVLKLEVPATCIICDGCMTFANTIRAAEKLNIPVILFWTMAACGFMAFYQAKVLKEKEIVPVKDETYLTNGYLDMEIDWIPGMKRIRLRDLPEFILATKQNYFAFEFLFETAQLADKVSHMIIHTFEELEASLVSEIKSIFPNVYTIGPLQLLLNKITQKETNNDSYSLWKEEPECVEWLNSKEPNSVVYVNFGSLAVMSLQDLVEFGWGLVNSNHYFLWIIRANLIDGKPAVMPQELKEAMNEKGFVGSWCSQEEVLNHPAVGGFLTHCGWGSIIESLSAGVPMLGWPSIGDQRANCRQMCKEWEVGMEIGKNVKRDEVEKLVRMLMEGLEGERMRKKALEWKKSATLATCCNGSSSLDVEKLANEIKKLSRN						Yes	Yes	able to catalyze the bioconversion of Mog. IE into Mog. IIE	bioconversion of Mog.IA into Mog.IIE (Mog. IA): able to catalyze bioconversion of Mog.IA into Mog.IIE
SEQ ID NO: 54: UGT enzyme (Ziziphus jujube) (protein, listed as Ziziphus jujuba) MMERQRSIKVLMFPWLAHGHISPFLELAKRLTDRNFQIYFCSTPVNLTSVKPKLSQKYSSSIKLVELHLPSLPDLPPHYHTTNGLALNLIPTLKKAFDMSSSSFSTILSTIKPDLLIYDFLQPWAPQLASCMNIPAVNFLSAGASMVSFVLHSIKYNGDDHDDEFLTTELHLSDSMEAKFAEMTESSPDEHIDRAVTCLERSNSLILIKSFRELEGKYLDYLSLSFAKKVVPIGPLVAQDTNPEDDSMDIINWLDKKEKSSTVFVSFGSEYYLTNEEMEEIAYGLELSKVNFIWVVRFPLGQKMAVEEALPKGFLERVGEKGMVVEDWAPQMKILGHSSIGGFVSHCGWSSLMESLKLGVPIIAMPMQLDQPINAKLVERSGVGLEVKRDKNGRIEREYLAKVIREIVVEKARQDIEKKAREMSNIITEKGEEEIDNVVEELAKLCGM	No	Yes	No	Yes	able to catalyze bioconversion of Mog. IIE to Mog.III				
SEQ ID NO: 33: SgUGT720-269-1 (Siraitia grosvenorii) (protein) MEDRNAMDMSRIKYRPQPLRPASMVQPRVLLFPFPALGHVKPFLSLAELLSDAGIDVVFLSTEYNHRRISNTEALASRFPTLHFETIPDGLPPNESRALADGPLYFSMREGTKPRFRQLIQSLNDGRWPITCIITDIMLSSPIEVAEEFGIPVIAFCPCSARYLSIHFFIPKLVEEGQIPYADDDPIGEIQGVPLFEGLLRRNHLPGSWSDKSADISFSHGLINQTLAAGRASALILNTFDELEAPFLTHLSSIFNKIYTIGPLHALSKSRLGDSSSSASALSGFWKEDRACMSWLDCQPPRSVVFVSFGSTMKMKADELREFWYGLVSSGKPFLCVLRSDVVSGGEAAELIEQMAEEEGAGGKLGMVVEWAAQEKVLSHPAVGGFLTHCGWNSTVESIAAGVPMMCWPILGDQPSNATWIDRVWKIGVERNNREWDRLTVEKMVRALMEGQKRVEIQRSMEKLSKLANEKVVRGINLHPTISLKKDTPTTSEHPRHEFENMRGMNYEMLVGNAIKSPTLTKK						Yes	Yes	able to catalyze the bioconversion of Mog. IE into Mog. IIE	product formation from mogrol (mogrol [3]): largely produced Mog.IA from mogrol
SEQ ID NO: 71: AtUGT73C3 (Arabidopsis thaliana) (protein, listed as Arabidopsis thaliana) MATEKTHQFHPSLHFVLFPFMAQGHMIPMIDIARLLAQRGVTITIVTTPHNAARFKNVLNRAIESGLAINILHVKFPYQEFGLPEGKENIDSLDSTELMVPFFKAVNLLEDPVMKLMEEMKPRPSCLISDWCLPYTSIIAKNFNIPKIVFHGMGCFNLLCMHVLRRNLEILENVKSDEEYFLVPSFPDRVEFTKLQLPVKANASGDWKEIMDEMVKAEYTSYGVIVNTFQELEPPYVKDYKEAMDGKVWSIGPVSLCNKAGADKAERGSKAAIDQDECLQWLDSKEEGSVLYVCLGSICNLPLSQLKELGLGLEESRRSFIWVIRGSEKYKELFEWMLESGFEERIKERGLLIKGWAPQVLILSHPSVGGFLTHCGWNSTLEGITSGIPLITWPLFGDQFCNQKLVVQVLKAGVSAGVEEVMKWGEEDKIGVLVDKEGVKKAVEELMGDSDDAKERRRRVKELGELAHKAVEKGGSSHSNITLLLQDIMQLAQFKN						Yes	Yes	able to catalyze the bioconversion of Mog. IE into Mog. IIE	product formation from mogrol (mogrol [3]): largely produced Mog.IA from mogrol; bioconversion of Mog.IA into Mog.IIE (Mog. IA): able to catalyze bioconversion of Mog.IA into Mog.IIE
SEQ ID NO: 13: Synthetic UGT enzyme (MbUGT1,2.2) (protein) MATKGSSGMSLAERFWLTLSRSSLVVGRSCVEFEPETVPLLSTLRGKPITFLGLMPPLHEGRREDGEDATVRWLDAQPAKSVVYVALGSEVPLGVEKVHELALGLELAGTRFLWALRKPTGVSDADLLPAGFEERTRGRGVVATRWVPQMSILAHAAVGAFLTHCGWNSTIEGLMFGHPLIMLPIFGDQGPNARLIEAKNAGLQVARNDGDGSFDREGVAAAIRAVAVEEESSKVFQAKAKKLQEIVADMACHERYIDGFIQQLRSYKDDSGYSSSYAAAAGMHVVICPWLAFGHLLPCLDLAQRLASRGHRVSFVSTPRNISRLPPVRPALAPLVAFVALPLPRVEGLPDGAESTNDVPHDRPDMVELHRRAFDGLAAPFSEFLGTACADWVIVDVFHHWAAAAALEHKVPCAMMLLGSAEMIASIADERLEHAETESPAAAGQGRPAAAPTFEVARMKLIR	Yes	Yes	Yes	Yes	able to catalyze bioconversion of Mog. IIE to Mog.III				production of siamenoside from Mog. II-E (Mog. II-E): production of substantial amounts of siamenoside
